Target: gasp1_human GPRASP1 (UniProt Q5JY77)
Sequence (Q5JY77 whole entry): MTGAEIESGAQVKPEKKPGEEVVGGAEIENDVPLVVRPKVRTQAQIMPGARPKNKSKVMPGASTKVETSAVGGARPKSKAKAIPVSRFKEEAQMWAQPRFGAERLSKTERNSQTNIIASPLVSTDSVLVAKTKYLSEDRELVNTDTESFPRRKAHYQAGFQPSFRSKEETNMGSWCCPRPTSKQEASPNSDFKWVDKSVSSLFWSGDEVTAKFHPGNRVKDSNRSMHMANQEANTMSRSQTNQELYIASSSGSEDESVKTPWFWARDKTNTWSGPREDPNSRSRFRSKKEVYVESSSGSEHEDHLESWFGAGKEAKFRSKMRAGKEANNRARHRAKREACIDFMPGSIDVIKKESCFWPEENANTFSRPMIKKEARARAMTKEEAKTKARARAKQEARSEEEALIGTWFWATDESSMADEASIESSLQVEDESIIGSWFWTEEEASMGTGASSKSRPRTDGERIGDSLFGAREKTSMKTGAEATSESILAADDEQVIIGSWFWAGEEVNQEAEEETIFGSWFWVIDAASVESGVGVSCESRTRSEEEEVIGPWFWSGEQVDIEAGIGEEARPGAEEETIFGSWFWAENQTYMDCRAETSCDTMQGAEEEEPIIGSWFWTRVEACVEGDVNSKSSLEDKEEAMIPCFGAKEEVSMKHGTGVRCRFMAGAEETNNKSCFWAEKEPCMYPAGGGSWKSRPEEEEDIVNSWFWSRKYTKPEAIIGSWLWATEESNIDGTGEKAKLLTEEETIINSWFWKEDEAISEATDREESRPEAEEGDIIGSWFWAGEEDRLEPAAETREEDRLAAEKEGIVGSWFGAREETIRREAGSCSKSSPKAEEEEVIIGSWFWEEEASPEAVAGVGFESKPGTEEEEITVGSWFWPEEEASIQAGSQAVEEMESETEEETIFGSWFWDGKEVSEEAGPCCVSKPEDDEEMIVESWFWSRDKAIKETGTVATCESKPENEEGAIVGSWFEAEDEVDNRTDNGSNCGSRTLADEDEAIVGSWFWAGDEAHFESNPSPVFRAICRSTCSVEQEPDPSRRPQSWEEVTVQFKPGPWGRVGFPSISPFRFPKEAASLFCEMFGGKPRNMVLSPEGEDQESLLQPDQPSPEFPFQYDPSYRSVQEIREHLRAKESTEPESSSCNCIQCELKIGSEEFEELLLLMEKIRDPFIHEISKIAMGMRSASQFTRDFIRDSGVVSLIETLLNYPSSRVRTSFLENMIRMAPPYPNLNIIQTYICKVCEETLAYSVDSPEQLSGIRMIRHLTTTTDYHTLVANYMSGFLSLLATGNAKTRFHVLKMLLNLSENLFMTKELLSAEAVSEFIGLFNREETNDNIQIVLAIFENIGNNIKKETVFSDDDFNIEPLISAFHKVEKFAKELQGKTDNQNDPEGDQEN

Beta-1 adrenergic receptor (Homo sapiens), P08588 F383A;R384A, sequence (P08588 whole entry F383A/R384A): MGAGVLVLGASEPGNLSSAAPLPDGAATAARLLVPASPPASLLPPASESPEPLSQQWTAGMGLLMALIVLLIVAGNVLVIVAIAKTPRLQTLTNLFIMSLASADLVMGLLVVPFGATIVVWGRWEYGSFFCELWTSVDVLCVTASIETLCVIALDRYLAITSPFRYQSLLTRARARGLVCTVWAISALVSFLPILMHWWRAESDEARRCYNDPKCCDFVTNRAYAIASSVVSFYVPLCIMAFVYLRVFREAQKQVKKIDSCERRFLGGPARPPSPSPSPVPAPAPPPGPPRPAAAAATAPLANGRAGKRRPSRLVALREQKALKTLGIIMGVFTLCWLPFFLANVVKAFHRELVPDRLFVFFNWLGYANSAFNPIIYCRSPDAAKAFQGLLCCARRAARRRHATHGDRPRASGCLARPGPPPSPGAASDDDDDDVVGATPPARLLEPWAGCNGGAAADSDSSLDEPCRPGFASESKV

- effect of a mutation on the interaction: decreasing interaction
Substance: Beta-1 adrenergic receptor (Homo sapiens), P08588 F383A;R384A
